Experimental data published in PMC9089689 (ACS Omega, 2022).
Changes are numbered by the printed parent chain. Names may count otherwise.

Experiments:
[1] = biological target: T1, Hup-WT (histone-like DNA binding protein HU) (Helicobacter pylori, UniProt O25506 1-94); assay: Tyr fluorescence quenching
T1 sequence: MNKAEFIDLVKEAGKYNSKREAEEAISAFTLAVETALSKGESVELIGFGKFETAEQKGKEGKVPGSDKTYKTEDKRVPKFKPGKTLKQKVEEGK

SEC = biological target: the molecule itself; assay: SEC
NMR 1H-15N HSQC = biological target: the molecule itself; assay: NMR 1H-15N HSQC

B1: hp-DNA (25-base A/T-rich hairpin) (structured_DNA)
DNA: TTTTTTTTTTCGAAGAAAAAAAAAA
- Kd [1]: 500 ± 50 nM

B2: Hup-P64A protein (natural protein, Helicobacter pylori, UniProt O25506 1-94, looked up)
chain: T1 sequence with P64A
- stoichiometry N (SEC): 2
- intensity ratio [dimer:monomer] (NMR 1H-15N HSQC): ~1.5

B3: Helicobacter pylori histone-like DNA binding protein (Hup), wild type (natural protein, UniProt O25506 1-94, looked up)
chain: T1 sequence
- stoichiometry N (SEC): 2
